{"source": "paper PMC5880214", "test_in_all_cases": "EMSA", "key": {"AtPOT1a": {"target": "T1, AtPOT1a (Arabidopsis thaliana, UniProt Q56Y52 1-467)", "T1 sequence": "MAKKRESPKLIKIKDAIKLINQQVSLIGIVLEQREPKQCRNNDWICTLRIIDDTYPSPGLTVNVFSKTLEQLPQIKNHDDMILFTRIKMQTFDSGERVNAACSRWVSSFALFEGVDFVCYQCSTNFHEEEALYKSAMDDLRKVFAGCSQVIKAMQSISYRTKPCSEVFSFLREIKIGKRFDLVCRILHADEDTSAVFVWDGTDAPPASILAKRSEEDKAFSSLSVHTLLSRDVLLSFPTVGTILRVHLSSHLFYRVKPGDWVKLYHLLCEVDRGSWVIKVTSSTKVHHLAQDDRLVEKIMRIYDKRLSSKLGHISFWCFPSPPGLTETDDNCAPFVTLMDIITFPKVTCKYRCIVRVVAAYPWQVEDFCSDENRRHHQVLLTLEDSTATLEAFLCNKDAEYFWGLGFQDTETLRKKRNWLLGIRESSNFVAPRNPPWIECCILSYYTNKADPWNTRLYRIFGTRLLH"}, "AtPOT1b": {"target": "T2, AtPOT1b (Arabidopsis thaliana, UniProt Q6NKX5 1-454)", "T2 sequence": "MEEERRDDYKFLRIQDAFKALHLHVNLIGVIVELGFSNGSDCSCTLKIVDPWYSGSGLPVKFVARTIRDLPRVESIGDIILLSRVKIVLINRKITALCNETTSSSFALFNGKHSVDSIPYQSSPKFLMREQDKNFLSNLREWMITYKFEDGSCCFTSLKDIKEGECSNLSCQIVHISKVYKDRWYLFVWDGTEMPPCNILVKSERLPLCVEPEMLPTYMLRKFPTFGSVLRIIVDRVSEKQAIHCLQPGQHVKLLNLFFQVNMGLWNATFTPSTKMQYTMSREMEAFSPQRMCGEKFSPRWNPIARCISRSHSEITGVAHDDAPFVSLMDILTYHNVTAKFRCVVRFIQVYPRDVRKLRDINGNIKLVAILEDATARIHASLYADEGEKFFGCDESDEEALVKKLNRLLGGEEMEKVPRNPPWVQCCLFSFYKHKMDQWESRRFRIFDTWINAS"}, "[1]": {"target": "T3, mPOT1a_N (OB-fold domains of mouse POT1a) (mouse, UniProt Q91WC1 1-299)", "T3 sequence": "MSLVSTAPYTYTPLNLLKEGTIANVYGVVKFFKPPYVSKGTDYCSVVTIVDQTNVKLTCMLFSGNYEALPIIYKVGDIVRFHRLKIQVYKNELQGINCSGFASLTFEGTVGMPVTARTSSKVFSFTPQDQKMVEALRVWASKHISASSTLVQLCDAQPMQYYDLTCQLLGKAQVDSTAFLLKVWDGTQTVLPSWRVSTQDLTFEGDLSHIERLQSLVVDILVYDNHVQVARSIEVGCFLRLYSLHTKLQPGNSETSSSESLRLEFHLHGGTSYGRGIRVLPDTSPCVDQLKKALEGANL"}, "AtPOT1a_N": {"target": "T4, AtPOT1a_N (Arabidopsis thaliana, UniProt Q56Y52 1-300)", "T4 sequence": "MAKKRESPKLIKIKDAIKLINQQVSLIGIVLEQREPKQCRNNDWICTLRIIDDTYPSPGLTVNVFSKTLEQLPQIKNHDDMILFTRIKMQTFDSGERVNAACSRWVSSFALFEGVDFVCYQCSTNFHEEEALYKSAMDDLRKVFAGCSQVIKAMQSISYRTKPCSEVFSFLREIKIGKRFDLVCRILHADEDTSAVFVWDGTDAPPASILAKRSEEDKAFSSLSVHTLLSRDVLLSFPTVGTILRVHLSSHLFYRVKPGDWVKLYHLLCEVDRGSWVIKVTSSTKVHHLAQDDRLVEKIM"}, "AlPOT1b": {"target": "T5, AlPOT1b (Arabidopsis lyrata, UniProt B7T1J2 1-450)", "T5 sequence": "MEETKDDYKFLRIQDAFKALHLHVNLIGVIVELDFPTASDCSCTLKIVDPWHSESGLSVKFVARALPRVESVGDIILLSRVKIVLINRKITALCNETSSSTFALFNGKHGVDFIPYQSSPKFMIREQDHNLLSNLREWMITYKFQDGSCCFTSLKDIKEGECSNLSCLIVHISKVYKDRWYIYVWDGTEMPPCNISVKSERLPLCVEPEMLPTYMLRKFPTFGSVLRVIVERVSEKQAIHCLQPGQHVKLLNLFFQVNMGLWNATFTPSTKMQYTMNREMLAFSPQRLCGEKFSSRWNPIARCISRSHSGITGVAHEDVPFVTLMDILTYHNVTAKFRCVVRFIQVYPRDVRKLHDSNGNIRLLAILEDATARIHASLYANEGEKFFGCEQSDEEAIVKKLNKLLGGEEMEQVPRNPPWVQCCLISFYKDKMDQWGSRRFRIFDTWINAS"}, "AlPOT1a": {"target": "T6, AlPOT1a (Arabidopsis lyrata, UniProt B7T1J1 1-467)", "T6 sequence": "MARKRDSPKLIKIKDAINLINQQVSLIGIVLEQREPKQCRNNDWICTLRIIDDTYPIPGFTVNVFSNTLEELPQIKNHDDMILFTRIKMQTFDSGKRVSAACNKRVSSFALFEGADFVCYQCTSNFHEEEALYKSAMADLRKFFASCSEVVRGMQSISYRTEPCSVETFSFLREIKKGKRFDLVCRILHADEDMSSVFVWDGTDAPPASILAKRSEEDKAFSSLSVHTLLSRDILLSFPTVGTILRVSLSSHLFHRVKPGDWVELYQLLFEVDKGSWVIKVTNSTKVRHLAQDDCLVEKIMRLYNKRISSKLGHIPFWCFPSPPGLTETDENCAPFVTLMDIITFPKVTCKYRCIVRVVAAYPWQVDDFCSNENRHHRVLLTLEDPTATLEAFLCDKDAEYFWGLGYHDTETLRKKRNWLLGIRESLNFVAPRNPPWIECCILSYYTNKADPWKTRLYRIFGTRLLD"}, "AtPOT1b_N": {"target": "T7, AtPOT1b_N (Arabidopsis thaliana, UniProt Q6NKX5 1-300)", "T7 sequence": "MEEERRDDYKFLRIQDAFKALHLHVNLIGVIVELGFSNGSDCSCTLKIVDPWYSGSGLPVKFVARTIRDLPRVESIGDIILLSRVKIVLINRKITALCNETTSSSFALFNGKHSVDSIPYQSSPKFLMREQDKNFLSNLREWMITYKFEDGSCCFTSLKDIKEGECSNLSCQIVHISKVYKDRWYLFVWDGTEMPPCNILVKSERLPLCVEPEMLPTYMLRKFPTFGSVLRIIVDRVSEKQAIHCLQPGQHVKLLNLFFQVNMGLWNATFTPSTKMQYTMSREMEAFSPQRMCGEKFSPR"}, "BoPOT1a": {"target": "T8, BoPOT1a (Brassica oleracea (cauliflower, …, UniProt B7T1J7 1-456))", "T8 sequence": "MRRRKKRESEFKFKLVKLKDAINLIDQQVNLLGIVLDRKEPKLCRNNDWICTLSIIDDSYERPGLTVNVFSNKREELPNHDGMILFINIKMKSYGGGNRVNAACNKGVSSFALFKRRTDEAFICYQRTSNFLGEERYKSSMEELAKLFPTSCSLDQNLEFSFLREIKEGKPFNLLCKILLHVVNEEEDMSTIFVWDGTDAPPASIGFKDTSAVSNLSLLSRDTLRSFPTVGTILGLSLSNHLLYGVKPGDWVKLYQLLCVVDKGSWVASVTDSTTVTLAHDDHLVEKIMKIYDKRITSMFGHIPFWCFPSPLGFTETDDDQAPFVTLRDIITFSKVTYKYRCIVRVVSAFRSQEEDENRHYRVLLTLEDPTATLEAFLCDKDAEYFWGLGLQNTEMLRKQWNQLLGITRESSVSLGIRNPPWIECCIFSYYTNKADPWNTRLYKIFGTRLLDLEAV"}, "BoPOT1b": {"target": "T9, BoPOT1b (Brassica oleracea (cauliflower, …, UniProt B7T1J8 1-450))", "T9 sequence": "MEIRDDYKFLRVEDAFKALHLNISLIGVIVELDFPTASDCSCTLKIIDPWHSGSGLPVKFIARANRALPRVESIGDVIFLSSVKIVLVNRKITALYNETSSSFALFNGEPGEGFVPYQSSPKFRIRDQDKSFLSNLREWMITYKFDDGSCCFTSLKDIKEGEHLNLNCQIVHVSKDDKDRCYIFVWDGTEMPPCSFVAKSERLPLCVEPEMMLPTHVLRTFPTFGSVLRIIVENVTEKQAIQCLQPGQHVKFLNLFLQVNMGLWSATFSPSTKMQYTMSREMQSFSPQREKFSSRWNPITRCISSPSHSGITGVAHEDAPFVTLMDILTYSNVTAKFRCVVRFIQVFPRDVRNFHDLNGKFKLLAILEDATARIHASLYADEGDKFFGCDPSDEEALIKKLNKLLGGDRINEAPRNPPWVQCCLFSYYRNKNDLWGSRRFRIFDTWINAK"}}, "data": [{"binder": "CCCTAAACCCTAAACCCTAAACCCTAAACCCTAAA (ssDNA)", "note": "[C-rich plant telomere repeat, five copies]", "values": [{"measurement": "binding result", "setting": "AtPOT1a", "value": "no binding"}, {"measurement": "binding result", "setting": "AtPOT1b", "value": "no binding"}]}, {"binder": "GGTTAGGGTTAG (ssDNA)", "note": "[(GGTTAG)2 vertebrate telomere repeat]", "values": [{"measurement": "binding result", "setting": "[1]", "value": "binds"}]}, {"binder": "TTTAGGGTTTAGGG (ssDNA)", "note": "[(TTTAGGG)2]", "values": [{"measurement": "binding result", "setting": "AtPOT1a_N", "value": "no binding"}, {"measurement": "binding result", "setting": "AlPOT1b", "value": "no binding"}, {"measurement": "binding result", "setting": "AlPOT1a", "value": "no binding"}, {"measurement": "binding result", "setting": "AtPOT1b_N", "value": "no binding"}, {"measurement": "binding result", "setting": "BoPOT1a", "value": "no binding"}, {"measurement": "binding result", "setting": "BoPOT1b", "value": "no binding"}, {"measurement": "binding result", "setting": "AtPOT1a", "value": "no binding"}, {"measurement": "binding result", "setting": "AtPOT1b", "value": "no binding"}]}, {"binder": "TTTAGGGTTTAGGGTTTAGGGTTTAGGGTTTAGGG (ssDNA)", "note": "[(TTTAGGG)5]", "values": [{"measurement": "binding result", "setting": "AtPOT1a_N", "value": "no binding"}, {"measurement": "binding result", "setting": "AlPOT1b", "value": "no binding"}, {"measurement": "binding result", "setting": "AlPOT1a", "value": "no binding"}, {"measurement": "binding result", "setting": "AtPOT1b_N", "value": "no binding"}, {"measurement": "binding result", "setting": "BoPOT1a", "value": "no binding"}, {"measurement": "binding result", "setting": "BoPOT1b", "value": "no binding"}, {"measurement": "binding result", "setting": "AtPOT1a", "value": "no binding"}, {"measurement": "binding result", "setting": "AtPOT1b", "value": "no binding"}]}]}
